Source: paper PMC5767323, “Differential NtcA Responsiveness to 2-Oxoglutarate Underlies the Diversity of C/N Balance Regulation in Prochlorococcus” (Frontiers in Microbiology, 2018)

Legend:
[1] = target: T1, NtcA (Prochlorococcus marinus, UniProt Q7VDU1); assay: ITC of NtcA-dsDNA at varied 2OG, ternary equilibrium fit; supported by SPR and EMSA; assay type: binding
T1 construct: recombinant His6-tagged NtcA (pET-15b)
T1 sequence (Q7VDU1 1-244): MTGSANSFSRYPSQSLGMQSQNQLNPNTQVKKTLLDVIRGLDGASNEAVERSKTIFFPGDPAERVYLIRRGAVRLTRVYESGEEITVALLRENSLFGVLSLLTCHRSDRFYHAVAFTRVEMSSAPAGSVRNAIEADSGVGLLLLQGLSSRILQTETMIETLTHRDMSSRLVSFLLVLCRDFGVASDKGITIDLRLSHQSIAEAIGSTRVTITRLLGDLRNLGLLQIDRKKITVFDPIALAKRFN

[2] = target: T2, NtcA (Prochlorococcus marinus, UniProt Q7TUG3); assay: ITC of NtcA-dsDNA at varied 2OG, ternary equilibrium fit; assay type: binding
T2 construct: recombinant His6-tagged NtcA (pET-15b)
T2 sequence (Q7TUG3 1-244): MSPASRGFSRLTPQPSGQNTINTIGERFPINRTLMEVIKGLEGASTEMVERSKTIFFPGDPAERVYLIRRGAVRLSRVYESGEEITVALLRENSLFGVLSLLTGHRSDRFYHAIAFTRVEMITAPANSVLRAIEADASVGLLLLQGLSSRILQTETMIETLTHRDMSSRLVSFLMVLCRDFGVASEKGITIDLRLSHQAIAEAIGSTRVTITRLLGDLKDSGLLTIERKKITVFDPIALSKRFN

[3] = target: T3, NtcA (Prochlorococcus marinus, UniProt Q7TUN1); assay: ITC of NtcA-dsDNA at varied 2OG, ternary equilibrium fit; supported by SPR and EMSA; assay type: binding
T3 construct: recombinant His6-tagged NtcA (pET-15b)
T3 sequence (Q7TUN1 1-222): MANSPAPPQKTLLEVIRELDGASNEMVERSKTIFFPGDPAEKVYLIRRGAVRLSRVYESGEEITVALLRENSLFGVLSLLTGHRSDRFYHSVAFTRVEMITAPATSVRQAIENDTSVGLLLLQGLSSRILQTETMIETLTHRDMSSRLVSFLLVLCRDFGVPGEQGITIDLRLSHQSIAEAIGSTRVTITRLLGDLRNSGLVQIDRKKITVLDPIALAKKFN

[4] = target: T4, NtcA SS120 (Prochlorococcus sp. SS120) (UniProt Q7VDU1); assay: ITC; conditions: ITC: 50 mM Hepes, 350 mM NaCl, pH 7.5, 25 C, 0-10 mM 2OG, SPR: Biacore X, CM5 with neutravidin, buffer not given, EMSA: as Napolitano et al. 2012, 1 uM …
T4 sequence: T1 sequence (Q7VDU1 1-244)

[5] = target: T5, NtcA MED4 (Prochlorococcus sp. MED4, UniProt Q7TUG3 1-244); assay: ITC; saturating 2OG (Kd,eff = Kd/alpha, extrapolated from fit); ITC: 50 mM Hepes, 350 mM NaCl, pH 7.5, 25 C, 0-10 mM 2OG; SPR: Biacore X, CM5 with neutravidin, 25 C, buffer not given; EMSA: as Napolitano et al. 2012, 1 uM NtcA; conditions: protein: recombinant; tags: His6 (pET-15b); chain copies: 2; blunt
T5 sequence: T2 sequence (Q7TUG3 1-244)

[6] = target: T5, NtcA MED4; assay: ITC; independent of 2OG; ITC: 50 mM Hepes, 350 mM NaCl, pH 7.5, 25 C, 0-10 mM 2OG; SPR: Biacore X, CM5 with neutravidin, 25 C, buffer not given; EMSA: as Napolitano et al. 2012, 1 uM NtcA; conditions: protein: recombinant; tags: His6 (pET-15b); chain copies: 2; blunt
[7] = target: T6, NtcA MIT9313 (Prochlorococcus sp. MIT9313, UniProt Q7TUN1 1-222); assay: ITC; saturating 2OG (Kd,eff = Kd/alpha, extrapolated from fit); ITC: 50 mM Hepes, 350 mM NaCl, pH 7.5, 25 C, 0-10 mM 2OG; SPR: Biacore X, CM5 with neutravidin, 25 C, buffer not given; EMSA: as Napolitano et al. 2012, 1 uM NtcA; conditions: protein: recombinant; tags: His6 (pET-15b); chain copies: 2; blunt
T6 sequence: T3 sequence (Q7TUN1 1-222)

[8] = target: T7, NtcA SS120 (Prochlorococcus sp. SS120, UniProt Q7VDU1 1-244); assay: as above; conditions: protein: recombinant; tags: His6 (pET-15b); chain copies: 2; blunt
T7 sequence: T1 sequence (Q7VDU1 1-244)

Molecule: O=C(O)CCC(=O)C(=O)O [2OG, 2-oxoglutarate]
- Kd [1]: 42000 ± 3000 µM
- Kd [2]: 36000 ± 3000 µM
- Kd [3]: 19000 ± 2000 µM

Molecule: CCAATAAGCCCCACACGGCATTATTG (double strand) [DNA4, glnA promoter SS120 mutated]
- Kd [4]: 10 µM

B1: DNA5, glnA promoter MED4 wt (dsDNA)
DNA 1: AAAAAGTTACCTTTGATACATAAT
DNA 2: ATTATGTATCAAAGGTAACTTTTT
- Kd [5]: 0.5 ± 0.1 µM

B2: DNA6, glnA promoter MED4 mutated (dsDNA)
DNA 1: AAAAACTAACCTTTGACTGATAAT
DNA 2: ATTATCAGTCAAAGGTTAGTTTTT
- Kd [6]: 9.5 ± 0.9 µM

B3: DNA1, glnA promoter MIT9313 wt (dsDNA)
DNA 1: TAGAAGGTACCTGTTGCTACAAAAAG
DNA 2: CTTTTTGTAGCAACAGGTACCTTCTA
- Kd [7]: 0.06 ± 0.01 µM

B4: DNA3, glnA promoter SS120 wt (dsDNA)
DNA 1: CCAATAGTCACAAAAAGTACTTATTG
DNA 2: CAATAAGTACTTTTTGTGACTATTGG
- Kd [8]: 0.8 ± 0.2 µM
